Assay results reported in patent publication US20210261685A1 (Alector, published 2021).

T1: human Axl ECD construct (Full Axl) with linker+His+Avi tag (human, UniProt P30530 26-451)
T1 construct: tested as Expi293 supernatant; also called ECD domain of human Axl
T1 sequence: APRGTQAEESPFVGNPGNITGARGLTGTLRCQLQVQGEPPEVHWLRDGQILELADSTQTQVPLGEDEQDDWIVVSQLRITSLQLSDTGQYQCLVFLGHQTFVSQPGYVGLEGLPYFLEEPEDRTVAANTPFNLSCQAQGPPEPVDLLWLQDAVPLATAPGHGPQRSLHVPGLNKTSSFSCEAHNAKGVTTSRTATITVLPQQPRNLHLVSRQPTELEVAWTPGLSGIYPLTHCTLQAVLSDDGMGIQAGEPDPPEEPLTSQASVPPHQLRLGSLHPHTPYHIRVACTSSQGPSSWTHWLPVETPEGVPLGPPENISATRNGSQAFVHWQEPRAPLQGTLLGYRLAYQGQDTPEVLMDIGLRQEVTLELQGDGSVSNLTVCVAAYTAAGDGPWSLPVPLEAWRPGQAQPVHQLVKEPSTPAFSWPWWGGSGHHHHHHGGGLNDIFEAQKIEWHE

T2: Recombinant human MerTK human Fc Chimera protein (R&D systems, Cat #391-MR-100) (human, UniProt Q12866 26-499, limits assumed)
T2 construct: Bought; also called recombinant human MerTK protein; MerTK-Fc
T2 sequence: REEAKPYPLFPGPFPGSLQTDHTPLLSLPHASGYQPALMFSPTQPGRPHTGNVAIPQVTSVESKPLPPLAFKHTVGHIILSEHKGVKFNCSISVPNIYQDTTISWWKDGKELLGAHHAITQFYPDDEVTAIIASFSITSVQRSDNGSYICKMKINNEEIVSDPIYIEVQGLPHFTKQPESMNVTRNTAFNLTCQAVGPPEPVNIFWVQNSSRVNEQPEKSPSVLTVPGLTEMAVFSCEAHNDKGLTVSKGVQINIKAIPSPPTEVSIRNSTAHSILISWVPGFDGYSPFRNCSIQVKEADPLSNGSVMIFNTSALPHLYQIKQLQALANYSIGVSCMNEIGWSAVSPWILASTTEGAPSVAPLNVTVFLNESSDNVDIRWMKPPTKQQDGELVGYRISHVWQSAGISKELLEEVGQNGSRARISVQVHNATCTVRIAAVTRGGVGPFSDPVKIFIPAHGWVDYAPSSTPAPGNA


How the values were obtained:
[1] = target: T1, human Axl ECD construct (Full Axl) with …; test: SPR, Carterra LSA, antibody immobilised, construct supernatant injected
Protocol: Binding of anti-MerTK antibodies of the present disclosure to these domain-swapped chimera or deletion mutants (prepared as described above) was tested by Surface Plasmon Resonance (SPR) using Carterra LSA. Purified anti-MerTK antibodies were immobilized in duplicate on a HC30M chip (Carterra) by amine coupling, following the manufacturer's instructions (described previously). Supernatants containing the constructs were diluted 1:1 with running buffer containing 0.5 mg/mL BSA (HBS-TE, Carterra) and injected over the immobilized antibodies. The surface was regenerated with 10 mM Glycine pH2.0 after each construct injection. Sensorgrams were analyzed using Carterra Epitope software to identify patterns of construct binding. Loss of binding to MerTK constructs with domains deleted or swapped in from Axl and/or gain of binding to Axl constructs with MerTK domains swapped in were evaluated. Data from these studies was used to construct a domain binding map for anti-MerTK antibodies and their binding to various domains of human MerTK.

[2] = target: T2, Recombinant human MerTK human Fc …; test: competition ELISA: His-tagged Gas6 (3 ug/ml) binding to captured human MerTK-Fc, anti-His-HRP detection; blocked ligand Gas6
Protocol: Rabbit anti-human IgG polyclonal antibody (Jackson ImmunoResearch, Cat #309-005-008) was captured to a high-protein binding plate at 2 μg/ml 4° C. overnight. After washing with 0.05% Tween20 in PBS three times, 5% BSA in PBS was added for 1 hour. Recombinant human MerTK human Fc Chimera protein (R&D systems, Cat #391-MR-100) was added at 2 μg/ml for 1 hour and the plates were then washed. Anti-MerTK antibodies were titrated to final concentration range of between 66.6 nM to 4 pM and then 40 μl of serially diluted antibody and 40 μl of His tag-conjugated recombinant Gas6 protein (R&D systems, Cat #885-GSB-050) at 3 μg/ml or His tag-conjugated recombinant ProS protein (R&D systems, Cat #9489-PS-100) at 20 μg/ml. After a further incubation for 1 hour, plates were washed and incubated for 1 hour with HRP-conjugated anti-6×His tag antibody (Abcam, Cat #ab1187). Plates were then washed and an HRP substrate (TMB) was used to develop the plates. After sufficient color change was observed, the reaction was stopped by adding 50 μl 2N H₂SO₄ and the OD was measured using a spectrophotometer (BioTek).

| Binder | binding result [1] | IC50 (read off the curve) [2] [nM] |
| --- | --- | --- |
| MTK-33 (antibody, human IgG1, V domains shown) VH: QVQLQQPGPELVRPGTSVKLSCKASGYTFTSYWMHWIKQRPGQGLEWIGVIDPSDNYINYNQKFKGKATLTVDTSSSTAYLQLSSLTSEDSAVYYCAREAGTRGYFDYWGQGTTLTVSS VL: SIVMTQTPKFLLVSAGDRVIITCKASQSVSNTVAWYQQKPGQSPKLLIYYASNRYTGVPDRFTGSGYGTDFTFTISTVQAEDLAVYFCQQDYRSPFTFGSGTQLEMK | no binding | – |
| MTK-29 (antibody, human IgG1, V domains shown) VH: QIQLVQSGPELKKPGETVKISCKSSGFTFTTYGMSWVKQAPGKGLKWMGWINTYSGVPTYTDDFKGRFAFSLETSASTASLQINNLKNEDTATYFCARYTNYGYFDYWGQGTTLTVSS VL: QIVLSQSPAILSASPGEKVTMTCRATSSVGYMHWYQQKPGSSPKPWIYATSNLASGVPARFSGSGSGTSYSLTISRVEAEHAATYYCQQWGSNPFTFGSGTKLEIK | no binding | – |
| MTK-15 (antibody, human IgG1, V domains shown) VH: QIQLVQSGPELKKPGETVKISCKASGYTFTNYGVHWVKQAPGKGLKWMGWINTYTGEPTYADDFKGRFAFSLETSASTAYLQINNLKNEDMATYFCARGNRYAYMDYWGQGTSVTVSS VL: QIVLSQSPAILSASPGEKVTMTCRASSSVSYMHWYQQKSGSSPKPWIYATSNLASGVPARFSGSGSGTSYSLTISRVEAEDAATYYCQQWSSNPRTFGGGTKLEIK | no binding | – |
| MTK-30 (antibody, human IgG1, V domains shown) VH: QVQLQQPGTELVRPGASVKLSCKASGYTFTSYWMHWVKQRPGQGLEWIGNLNPNNGGTYYNEKFKSKATLTVDKSSSTAYMQLSSLTSEDSAVYYCARQILLYFDYWGQGTTLTVSS VL: DVLMTQTPLSLPVSLGDQASISCRSSQSIVHSNGDTYLEWYLQKPGQSPKLLIYKVSNRFSGVPDRFSGSGSGTDFTLKISRVEAEDLGVYYCFQGSHVPWTFGGGTKLEIK | no binding | – |
| MTK-21 (antibody, human IgG1, V domains shown) VH: QIQLVQSGPELKKPGETVKISCKASGYTFTNFGMTWVRQAPGMDLKWMGWINTYTGEPKYADDFKGRFALSLETSASTAYLQITNFKNEDTATYFCARGGGRLGLRPLDYWGQGTTLTVSS VL: DIQMTQTTSSLSASLGDRVTISCRASQDINNYLNWYQQKPDGTVKLLIYYTSSLHSGVPSRFSGSGSGTDYSLTITNLEQEDIATYFCQQGNTLPWTFGGGTRLEIK | no binding | ~6 |
| MTK-16 (antibody, human IgG1, V domains shown) VH: LIQLVQSGPELKKPGETVKISCKASGYTFTNHGMNWVKQDPGKGLKWMGWINTYTGEPTYADDFKGRFVFSMETSASAAFLQINNLKNEDTATYFCARKGVTAARYFDYWGQGTTLTVSS VL: DIVMTQSPKFMSTSVGDRVSITCKASQNVRTAVAWYKKKPGQSPKALINLASNRHTGVPDRFTGSGSGTDFTLTISNVQSEDLADYFCLQHWNYPLTFGGGTKLEIK | no binding | ~7 |

Results, then the binder that gave them:

| binding result [1] | IC50 (read off the curve) [2] [nM] | Binder |
| --- | --- | --- |
| no binding | – | MTK-10 (antibody, human IgG1, V domains shown) VH: QVTLKESGPGILQPSQTLSLTCSFSGFSLTTSGMGVGWIRQPSGKGLEWLAHIWSDDDKRSNPALKSRLTISQDSSTNQVFLKIASVDTADSATYYCSHLTPVREFAYWGPGTLVTVSE VL: DIQMTQTTSSLSASLGDRVTISCSASQGISNYLNWFQQKPDGTVKLLIYYTSRLHSGVPSRFSGSGSGTDFSLTISNLEPEDIATYYCQQYTKLPYTFGGGTKLEIK |
| – | ~8 | MTK-07 (antibody, human IgG1, V domains shown) VH: DVQLQESGPGLVKPSQSLSLTCSVTGYSITSGYYWNWIRQFPGNTLEWMGYMSFDGDNKFNPSLKNRISITRDTSKNQFFLRLNSVTTEDTATYYCARGGYNYGSTEANWGQGTLVTVST VL: QIVLTQSPAIMSAFPGEKVTITCSASSSVTYMHWFQQKPGTSPKLWIFSTSNLASGVPARFSGSGSGTSYSLTISRMEAEDAATYYCQQRSSYPFTFGSGTKLEIK |
| no binding | – | MTK-06 (antibody, human IgG1, V domains shown) VH: QIQLVQSGPELKKPGETVKISCKASGYTFTNYGMNWVKQAPGKGLKWMGWINTNTGEPTYAEEFKGRFAFSLETSASTAYLQINNLKNEDTATYFCARYYNYWYFDVWGAGTTVTVSS VL: QIVLSQSPAILSASPGEKVTMTCRASSSVSYMHWYQQKPGSSPKPWIYATSNLASGVPARFSGSGSGTSYSLTISRVEAEDAATYYCQQWSSKPPTFGGGTKLEIK |
